Experimental data published in PMC2975869.

Target: HA-tagged M593A-PTH1R (UniProt Q03431)
Assay: radioligand binding

[125I]-PTH(1-34)NH2 (peptide)
Total Binding (TB), cells co-transfected with EBP50: 1290 | Total Binding (TB), cells co-transfected with pcDNA3: 1180
